Here are results for 41 sequences from the nanobody polyreactivity screen of Harvey et al. (2022).

This data set is described as follows: yeast display, Sf9 membrane polyspecificity reagent, FACS + sequencing; frameworks hold sequencing errors. In short, it runs like this: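 Using colony PCR, genes from sorted yeast display clones were amplified, then sequenced on MiSeq at 2 × 250 and filtered by CDR length. The clones had been stained with 10% biotinylated, detergent-solubilized Sf9 membrane reagent for 1 hour at 4 °C and sorted by FACS into low and high (top ~1%) gates on anti-HA and streptavidin fluorescence. Polyreactivity labels come from the gate of origin.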
As for “QVQLVESGVGLVQAGGILRLSCAASGSSFRGYAMGWYRQAPGKERELVAAISSRGARTHYADSVKGRFTISRDNAKNTVYLQMNRLKPEDTAVYYCNKRQVFVSTGEYEFDYWGQGTQVTVSS”, the “polyreactivity (PSR sort gate)” value is reported as “low polyreactivity”.

As for “QVQLVESGVGLVQAGGRLRLICAASGSTYDSAMGWYIQAPGKERELVASISWSDSSTYYADSVKGRFTISPDNAKNTVYLQMTSLKPEDSAVYYCNAEQGTRDSDYWGQGTQVTVSS”, the “polyreactivity (PSR sort gate)” value is reported as “low polyreactivity”.

“QVQLVESGVGLVQAGGRLRLSCAASGLTLHRYTMGWYRQAPGKERELVAVITYGGGNTYYADSVKGRFTISRDNAKNTVYLQLNCLKPEDTAVYYCAARDPPFYWYDYWGQGTQVTVSS”: the “polyreactivity (PSR sort gate)” value is “low polyreactivity”.

“QVQLVESGVGLVQAGGRLRLSCAASGRIFGSNAMGWYRQAPGKERELVAAITRSGGSTYYADSVKGRFTISRDNAKNTVYLQMNSLKPEDTAVYYCAAVRTQPKYDYCGQGTQVTVSS”: the “polyreactivity (PSR sort gate)” value is given as “high polyreactivity”.

For the sequence “QVQLVESGVGLVQAGGRLRLSCAASGSIFYYYAMGWYRQAPGKERELVAAISGTGGSTYYADSVKGRFTISRDNAKITFYLQMNSLKPEDTAVYYCAASFYIERHRYIYWGQGTQVTVSS”, the “polyreactivity (PSR sort gate)” value is “high polyreactivity”.

For “QVQLVESGVGLVQAGGSLRLICADSGSIFSQYAMGGYRPAPGKERELVAAISKNGGSTYYADSVKGRFTISRDNAKNTVYSQMNSLKPEDTAVYYCAARVLKGYYWGQGTQVTVSS”, the “polyreactivity (PSR sort gate)” value is reported as “high polyreactivity”.

As to “QVQLVESGVGLVQAGGSLRLSCAASGFIFGVTTMGWYRLAPGKERELVAAISTLASSTFDADSVKGRFTISRDNAKNTVYLQMNSLKPEDTAVYYCAVDLNWFFSFGLDYWGQGTQLTVSS”, the “polyreactivity (PSR sort gate)” value is recorded as “low polyreactivity”.

With “QVQLVESGVGLVQAGGSLRLSCAASGFIFRFYTMGWYRQAPGKERELVAAISGSGGRTYYADSVKGRFTISRDYANNTVYVQMNRLKPEDTEVYYCNKQFLYPSYDYWGQGTQVTVSS”, the “polyreactivity (PSR sort gate)” value is on record as “high polyreactivity”.

Take “QVQLVESGVGLVQAGGSLRLSCAASGFTFAFYAMGWYRQAPGKERELVAAISRRGGSTTYADSVKGRFTISRDNAKYTVYLQMNSLKPEDTAVYYCNAVSTRNPGPDYYYWGQGTQVTVSS”: the “polyreactivity (PSR sort gate)” value was “high polyreactivity”.

As for “QVQLVESGVGLVQAGGSLRLSCAASGFTFKSYTMGWYRQAPGKERELVANISRRGGSTYYADSVKGRFTISRDTAKNTVYLQMNRLKPEDTAVYYCAADAYGFLYTTYRYFYWGQGTQVTVST”, the “polyreactivity (PSR sort gate)” value was “high polyreactivity”.

Turning to “QVQLVESGVGLVQAGGSLRLSCAASGGIFAVYAMGWYIQAPGKERELVAAITWRGGSTRYADSVKGRFTISRDNAKNTVYLQMNSLKPEDTAVYYCAVRSTGYPSRYYYWGQGTQVTVSS”, the “polyreactivity (PSR sort gate)” value is given as “high polyreactivity”.

As for “QVQLVESGVGLVQAGGSLRLSCAASGITLYNYAMGWYRHAPGKERELVAAISLSGGRTYYADSVKGRFTISRDNAKNTVYLQMNSLKPEDTAVYYCAADWLNSDPYNYWGQGTQVTVSS”, the “polyreactivity (PSR sort gate)” value is reported as “low polyreactivity”.

Regarding “QVQLVESGVGLVQAGGSLRLSCAASGLIFGYYAMGRNRQAPGKERELVAAITRGGGRTYYADSVKGRFTISRDNAKNTVYLQMNSLKPEDTAVYYCNAVRRVSSAGEFDYWGQGTQVTVSS”, the “polyreactivity (PSR sort gate)” value was “high polyreactivity”.

With “QVQLVESGVGLVQAGGSLRLSCAASGLTFLYYAMAWLRQAPGKERELVAVISSGGRTYYADSVKGRFTISRDNAKNTVYLQMHSLKPEDTAVYYCAAYDPYYQSTFDYWGQGTQVTVSS”, the “polyreactivity (PSR sort gate)” value is listed as “high polyreactivity”.

Consider “QVQLVESGVGLVQAGGSLRLSCAASGNTISYNAMGWSRQAPGKERELVAAIRWSGGSTNYADSVKGRFTISRDNAKNTVYLQMNSLKPEDTAVYYCNARYASTNYGWISYYWGQGNQVTVSS”, for which the “polyreactivity (PSR sort gate)” value was “high polyreactivity”.

In the case of “QVQLVESGVGLVQAGGSLRLSCAASGRIFAPYAMGWYRQAPGKERELVAAIRWRGGSTSYADSVKGRFTISRDNAKNTVYLQMNSLKPEDTAVYYCNADYGFSFYWYDYWGQGTQVTVSS”, the “polyreactivity (PSR sort gate)” value is “low polyreactivity”.

With “QVQLVESGVGLVQAGGSLRLSCAASGRIFRGYAMGWYRQAPGKEREFVAAISWSGGDTYYADSVKGRFTISRDNAKNTVYLQMNSLKAEDTAVYYFATEYRLIPGPFVWPYDYWGQGTQVTVSS”, the “polyreactivity (PSR sort gate)” value is recorded as “high polyreactivity”.

“QVQLVESGVGLVQAGGSLRLSCAASGRIFRRYVMGWYRQAPGKEREFVAAITSRGGRTYYADSVKGRFTISRDNAKNTVYLQMNSLKPEDTAVYYCAARYSRSMDYWGQGTQVTVSS”: the “polyreactivity (PSR sort gate)” value is listed as “high polyreactivity”.

For “QVQLVESGVGLVQAGGSLRLSCAASGRIFYPYAMGWYRQAPGKERELDAVINGSGGSTYYADSVKGRFTISRDYAKNTVYLQMNSLKPEDTAVYYCARVWSRRYGGWYRNYYWGQGTQVTVSS”, the “polyreactivity (PSR sort gate)” value was “high polyreactivity”.

Turning to “QVQLVESGVGLVQAGGSLRLSCAASGRIFYTYAMGWYRQAPGKERELVAAISSRTGSTYYADSVKGRFTISRDNAKNTVYLQMNSLKPEDTAVYYCAAYLWKSKRKLDYWGQGTQVTVSS”, the “polyreactivity (PSR sort gate)” value is “high polyreactivity”.

As to “QVQLVESGVGLVQAGGSLRLSCAASGRIFYYNAMGWYRQAPGKVRELVASISWDASSTYYADSVKGRFTISRDNAKNTVYLQMNSLKPEDTAVYYCNKKHLYRQYDYWGQGTQVTVTS”, the “polyreactivity (PSR sort gate)” value is “low polyreactivity”.

As to “QVQLVESGVGLVQAGGSLRLSCAASGSIFHIYAMGWYRQAPGKERELVAAMTYADSVKGRFTISRVNAKNTVYLQMNSLKPEDTAVYECNADNWPRIHGSAYDYWGQGTQVTVSS”, the “polyreactivity (PSR sort gate)” value is “low polyreactivity”.

For the sequence “QVQLVESGVGLVQAGGSLRLSCAASGSIFQKYTMGWYRQAPGKERQLVAAITRSGGSTYYADSVKGRFTISRDNAKNTVYLQMNSLKAEDSAVYYCNKRYIPWAYDYWGQGTQVTVSS”, the “polyreactivity (PSR sort gate)” value was “high polyreactivity”.

For “QVQLVESGVGLVQAGGSLRLSCAASGSIFYHYVMGWYRQAPGKERELVAGISWSGVSTYYADSVKGRFTISRDNAKNTVYLQMNSLKPEDTADYYCAAVYRQSRLHTFGYWGQGTQVTVSS”, the “polyreactivity (PSR sort gate)” value is listed as “high polyreactivity”.

As for “QVQLVESGVGLVQAGGSLRLSCAASGSTFDFNAMGWYRPAPGKERELVAAITGSGGSTDYADSVKGRFTISRDNAKNTVYLQMNSLKPEDTAVYYCNAGKTIDYRDGVGYDHWGQGTQVTVSS”, the “polyreactivity (PSR sort gate)” value is “low polyreactivity”.

On to “QVQLVESGVGLVQAGGSLRLSCAASGSTFWSYTMGWYRQAPGKERELVARIRTTGGSTYADSVKGRFTISRDNAKNTVYLQMNSLKPEDTAVYYCAKEGWLRYYPWYGGDYWGQGTQVTVSS”, for which the “polyreactivity (PSR sort gate)” value was “high polyreactivity”.

With “QVQLVESGVGLVQAGGSLRLSCAASGYIFRLYAMGGYRQAPGKERELVATITASGGTYYADSVKGRFTISRDNAKNTVYLQMNSLKPEDTAVYYCAAAKLRRLSRVRYGYWGQGTQVTVSS”, the “polyreactivity (PSR sort gate)” value is recorded as “high polyreactivity”.

As to “QVQLVESGVGLVQAGGSLRLSCAATGFTFDENAMGWYRQAPGINYSGASTYYAYSVKGRFTISRDNAKNTVYLQMNSLKPEDTAVYYCAAEVVAQMNYWGQGTQVTVSS”, the “polyreactivity (PSR sort gate)” value is “low polyreactivity”.

Regarding “QVQLVESGVGLVQAGGSLRLSCADSGFTFRRYVMGWYRQAPGKERELVAGISASGDSTYYADSVKGRFTISRDYAKNTFYLQMNSLKPEDTAVYYCATVARYRYLESYYWGQGTQVTVSS”, the “polyreactivity (PSR sort gate)” value is “high polyreactivity”.

On to “QVQLVESGVGLVQAGGSLRLSCADSGSIFVINAMGWYRQASGKERELVATIRARAGSTYYADSVKGRFTISRDNAKNTVYLQMNSLKPEDTAFYYCAARLKSYRVEYWGQGTQVTVSS”, for which the “polyreactivity (PSR sort gate)” value is “high polyreactivity”.

With “QVQLVESGVGLVQAGGSLRLSCASSGFIFNYNTMGWYRQAPGKETELVAAISSSGGSTYYADSVKGRFTISRDNAKNTVYLQMNSLKPEDTAVYYCGAGANAQRVPNGDYWGQGTQVTVSS”, the “polyreactivity (PSR sort gate)” value is given as “low polyreactivity”.

On to “QVQLVESGVGLVQAGGSLRLSCASSGFTFYYYAMGWYRQAPGKERELVAAIDTSDGSTYYADSVKGRFTISRDNAKNTVYLQMNSLKPEDTAVYYCAAEVDWVPFLLDYWGQGTQVTVSS”, for which the “polyreactivity (PSR sort gate)” value is given as “low polyreactivity”.

Take “QVQLVESGVGLVQAGGSLRLSCASSGRTFPTYAMGWYRQAPGKERELVAAIRISGGRTYYADSVKGRFTISRDNAKNTVDLQMNSLKPEDTAVYYCAADTYASYESWGQGTQVSVSS”: the “polyreactivity (PSR sort gate)” value is “high polyreactivity”.

Turning to “QVQLVESGVGLVQAGGSLRLSCASSGRTFYDYAMGWYRQAPGKERELVATISSRGDGTYYADSVKGRFTISRDYAKITVCLLMNSLKPEDTAVYYCAARYRRVHSGYGYWGQGTHVTVSS”, the “polyreactivity (PSR sort gate)” value is “high polyreactivity”.

On to “QVQLVESGVGLVQAGGSLRLSSAASGIIFVSNAMRWYRQAPGKERELVATINWSDDSTYYADSVKGRFTISRDNAKKTVSLQMNSLKADYTAVYYCYCGQGTQVTVSS”, for which the “polyreactivity (PSR sort gate)” value is on record as “low polyreactivity”.

Consider “QVQLVESGVGLVQAGGSLSLSCAASGRIFPVYAMGWYRQAPGKERELVATISYSGSSTYYADSVKGRFTISRDNAKNNVYLLMNSLKPEDTAVYYCNADAFGPQCVQYYYWGQVTQVTVSS”, for which the “polyreactivity (PSR sort gate)” value is “low polyreactivity”.

As to “QVQLVESGVGLVQAGGTLRLSCAASGFTFVRYAMAWYRQAPGKEREFVASISARGCNTFYADSVKGRFTISRDNAKNTVYLQMNSLKPEDTAVYYCAKRGPYGTGYGYWGQGTQVTVSS”, the “polyreactivity (PSR sort gate)” value is listed as “high polyreactivity”.

As to “QVQLVESGVGLVQAGGTLRLSCAASGITFLQYAMGWYRQAPGKERELVAGITRSGGAGTYYADSVKGRFTISRDNAKNTVYLQMNSLKPEDTAVYYCAAETDTPSLYQDMYYWGQGTQVTVSS”, the “polyreactivity (PSR sort gate)” value is on record as “high polyreactivity”.

With “QVQLVESGVGLVQAGGTLRLSCAASGRIFTINAMGWYRQAPGKEREFVAAISGSGGTTYYADSVKGRLTISRDNAKNTVYLQMNSLKPEDTAVYYCAVSQSWYWYYASDYWGQGTQVTVSS”, the “polyreactivity (PSR sort gate)” value was “low polyreactivity”.

For “QVQLVESGVGLVQARGSLRLSCAASGITFNYYAMGWYRQAPGKESELVATINRSGGTTYYADSVKGRFTISRDKAKNTDYLQMNSLKQEDTAVYDCNARYTSLGRYHSGYEYWGQGTQVTVSS”, the “polyreactivity (PSR sort gate)” value was “high polyreactivity”.

For “QVQLVESGVGLVQARGSLRLSCAASGSIFRRNAMGWYRQAHGKERELVAAISASGGRTYADSVKGRFTISRDNSKNTVYFQMKSLNPEDKAVYYCAARCYCSSRFDYWGLGTQVTVSS”, the “polyreactivity (PSR sort gate)” value is “high polyreactivity”.
